Assay results published in the Immune Epitope Database (IEDB).

Key:
HLA-A*02:01 = assay: IEDB peptide-MHC binding, purified MHC/competitive/fluorescence; filed as Kd, often an IC50 or EC50 that approximates it; ≥ and ≤ were set here for values at or beyond the usual limits of such assays; conditions: source organism: Bacillus cereus
HLA-A*02:06 = assay: as above; conditions: source organism: Bacillus cereus
HLA-A*03:01 = assay: IEDB peptide-MHC binding, purified MHC/direct/fluorescence; filed as Kd, often an IC50 or EC50 that approximates it; ≥ and ≤ were set here for values at or beyond the usual limits of such assays; conditions: source organism: Bacillus anthracis
HLA-B*40:01 = assay: as above; conditions: source organism: Bacillus anthracis
HLA-C*05:01 = assay: as above; conditions: source organism: Bacillus cereus
HLA-A*31:01 = assay: as above; conditions: source organism: Bacillus anthracis
HLA-B*15:17 = assay: as above; conditions: source organism: Bacillus anthracis
HLA-B*57:01 = assay: as above; conditions: source organism: Bacillus anthracis
HLA-B*39:01 = assay: as above; conditions: source organism: Bacillus anthracis str. A0465
HLA-B*15:01 = assay: as above; conditions: source organism: Bacillus anthracis
HLA-A*11:01 = assay: as above; conditions: source organism: Bacillus anthracis
HLA-B*27:05 = assay: as above; conditions: source organism: Bacillus anthracis
HLA-B*48:01 = assay: as above; conditions: source organism: Bacillus anthracis
HLA-A*01:01 = assay: as above; conditions: source organism: Bacillus anthracis
HLA-B*46:01 = assay: as above; conditions: source organism: Bacillus anthracis
HLA-B*08:02 = assay: as above; conditions: source organism: Bacillus anthracis str. A0465
HLA-A*69:01 = assay: as above; conditions: source organism: Bacillus anthracis
HLA-B*58:01 = assay: as above; conditions: source organism: Bacillus anthracis

MSDIFASEV showed a Kd (HLA-A*02:01) of 30.2 nM, a Kd (HLA-A*02:06) of 12.1 nM and a Kd (HLA-A*03:01) of at least 20000 nM. For the same sequence, the Kd (HLA-B*40:01) was at least 20000 nM, the Kd (HLA-C*05:01) was at most 1 nM and the Kd (HLA-A*31:01) was at least 20000 nM. The Kd (HLA-B*15:17) was 2.1 nM, the Kd (HLA-B*57:01) was at least 20000 nM and the Kd (HLA-B*39:01) was 467 nM. The Kd (HLA-B*15:01) was at least 20000 nM, the Kd (HLA-A*11:01) was at least 20000 nM and the Kd (HLA-B*27:05) was at least 20000 nM. For the same sequence, the Kd (HLA-B*48:01) was at least 20000 nM, the Kd (HLA-A*01:01) was 7.3 nM and the Kd (HLA-B*46:01) was at least 20000 nM. For the same sequence, the Kd (HLA-B*08:02) was at least 20000 nM, the Kd (HLA-A*69:01) was at most 1 nM and the Kd (HLA-B*58:01) was at least 20000 nM.
